In test [1] the target is human thyroid stimulating hormone receptor (TSHR) (human) (UniProt P16473). As to the kind of experiment: cell-based or functional assay.
Test [2] has the same target. The experiment in a line: receptor binding affinity; assay and reference not described (reference presumably wild type hTSH).

Substance “α4K/β3R hTSH analog (heterodimer of α4K mutant α subunit and β3R mutant TSH β subunit) (from UniProt P01215 25-116; P01222 21-132) (ligand)” returned a hormone potency in test [1] below 1300 fold. Also, the fold increase in binding affinity in test [2] was below 50000 fold.

Turning to “mutant TSH heterodimer comprising the α4K subunit (αQ13K+αE14K+αP16K+αQ20K) and a fusion protein of the TSH β subunit and the CTEP of hCG (from UniProt P0DN86 134-165) (ligand)”, in test [1], the Vmax of cyclic AMP production in CHO-JP09 cells, compared to wild type TSH is 1.5 fold; the in vitro activity (cyclic AMP production in CHO-JP09 cells) over that of the α4K/wild type β heterodimer fell in the range of 3 to 4 fold; the potency in stimulation of cyclic AMP production in CHO-JP09 cells, compared to wild type TSH came to 200 fold.
